# Experimental data published in patent US20240209062A1 (INVETX, published 2024).
# Molecular target: T1, feline FcRn (soluble portion of large subunit p51 isoform X1 with C-terminal 6xHis-tag, co-expressed with … (feline, UniProt Q5MGS7 21-118))
# T1 construct: Heterodimer made by co-expression in CHO cells, purified on HisTrap FF; also called FcRn complex
# Assay: SPR, Biacore T200, IgG captured on Protein L chip, feline FcRn flowed over, pH 5.9, 1:1 fit
# Experimental: The feline FcRn binding experiments at pH 5.9 were completed on a BIACORE™ T200 instrument. A Series S Protein L Sensor chip (Cytiva, Cat. No. BR29205137) was used to capture the antibody variants via the kappa (κ) light chain. The feline variants were captured onto the protein L chip at a flow rate of 10 μL/min for 60 seconds. 1×PBX-P+(Cytiva Cat 28995084) was adjusted to pH 5.9 for the running buffer. The feline FcRn was flowed over the sensor chip at 30 μL/min for 120 seconds contact time and 600 seconds dissociation time. Regeneration of the flow cells was completed by flowing over 10 mM glycine, pH 1.7 at 30 μL/min for 30 seconds. The data were evaluated by the BIACORE™T200 Evaluation software v3.2.1 by fitting to a 1:1 kinetic interaction model.
# T1 sequence (chain, as listed by the source limits assumed, chain 1 of 2): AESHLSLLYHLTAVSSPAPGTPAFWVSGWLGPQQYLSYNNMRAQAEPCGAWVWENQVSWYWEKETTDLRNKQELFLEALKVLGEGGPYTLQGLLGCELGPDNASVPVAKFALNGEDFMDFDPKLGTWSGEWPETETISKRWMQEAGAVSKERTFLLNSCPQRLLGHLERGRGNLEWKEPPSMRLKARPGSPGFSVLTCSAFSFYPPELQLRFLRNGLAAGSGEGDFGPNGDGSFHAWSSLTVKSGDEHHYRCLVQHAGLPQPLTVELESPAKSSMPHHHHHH
# T1 sequence (Q5MGS7 other isoform, or with tags, fused parts or gaps limits assumed, chain 2 of 2): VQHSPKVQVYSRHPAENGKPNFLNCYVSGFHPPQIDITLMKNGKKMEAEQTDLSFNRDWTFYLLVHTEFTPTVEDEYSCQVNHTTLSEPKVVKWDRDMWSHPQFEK
Binder,Kd,koff,kon
"IgG with wild-type feline IgG1a Fc (antibody, Constant domain carries the MALA mutations (M234A, L244A as printed); variable domains from WO 2023/97275; also called Wild-type Fc; wild type feline Fc) heavy: DVQLVESGGDLVKPGGSLRLTCVASGLSLTSDSMSWVRQAPGKGLQWVSTLWSNRGTYYTDSVKGRFTISKDNAENTLYLQMNNLKTEDTATYYCASIYYYEADYLHWYFDFWGQGALVTVSSASTTAPSVFPLAPSCGTTSGATVALACLVLGYFPEPVTVSWNSGALTSGVHTFPAVLQASGLYSLSSMVTVPSSRWLSDTFTCNVAHPPSNTKVDKTVRKTDHPPGPKPCDCPKCPPPEAAGGPSIFIFPPKPKDTLSISRTPEVTCLVVDLGPDDSDVQITWFVDNTQVYTAKTSPREEQFNSTYRVVSVLPILHQDWLKGKEFKCKVNSKSLPSPIERTISKAKGQPHEPQVYVLPPAQEELSRNKVSVTCLIKSFHPPDIAVEWEITGQPEPENNYRTTPPQLDSDGTYFVYSKLSVDRSHWQRGNTYTCSVSHEALHSHHTQKSLTQSPG light: EIQMTQSPTSLSASVGDRVTITCRASEGIANNLSWYQQTPGKAPKLLIYATSNLHSGVPSRFSGSGSGTDFTLTISSLQPEDFATYYCQQGFKWPLTFGGGTKLEITRSDAQPSVFLFQPSLDELHTGSASIVCILNDFYPKEVNVKWKVDGVVQNKGIQESTTEQNSKDSTYSLSSTLTMSSTEYQSHEKFSCEVTHKSLASTLVKSFNRSECQRE",417 nM,0.273 s⁻¹,709000 M⁻¹ s⁻¹
"IgG with feline IgG1a Fc variant S252M, L309D (antibody, IgG1a constant domain with MALA mutations (M234A, L244A as printed); variable domains from WO 2023/97275) heavy: DVQLVESGGDLVKPGGSLRLTCVASGLSLTSDSMSWVRQAPGKGLQWVSTLWSNRGTYYTDSVKGRFTISKDNAENTLYLQMNNLKTEDTATYYCASIYYYEADYLHWYFDFWGQGALVTVSSASTTAPSVFPLAPSCGTTSGATVALACLVLGYFPEPVTVSWNSGALTSGVHTFPAVLQASGLYSLSSMVTVPSSRWLSDTFTCNVAHPPSNTKVDKTVRKTDHPPGPKPCDCPKCPPPEAAGGPSIFIFPPKPKDTLMISRTPEVTCLVVDLGPDDSDVQITWFVDNTQVYTAKTSPREEQFNSTYRVVSVLPIDHQDWLKGKEFKCKVNSKSLPSPIERTISKAKGQPHEPQVYVLPPAQEELSRNKVSVTCLIKSFHPPDIAVEWEITGQPEPENNYRTTPPQLDSDGTYFVYSKLSVDRSHWQRGNTYTCSVSHEALHSHHTQKSLTQSPG light: EIQMTQSPTSLSASVGDRVTITCRASEGIANNLSWYQQTPGKAPKLLIYATSNLHSGVPSRFSGSGSGTDFTLTISSLQPEDFATYYCQQGFKWPLTFGGGTKLEITRSDAQPSVFLFQPSLDELHTGSASIVCILNDFYPKEVNVKWKVDGVVQNKGIQESTTEQNSKDSTYSLSSTLTMSSTEYQSHEKFSCEVTHKSLASTLVKSFNRSECQRE",352 nM,0.203 s⁻¹,581000 M⁻¹ s⁻¹
"IgG with feline IgG1a Fc variant S252M, I377L (antibody, Printed '1377L' read as I377L; IgG1a constant domain with MALA mutations (M234A, L244A as printed); variable domains from WO 2023/97275; also called S252M, 1377L) heavy: DVQLVESGGDLVKPGGSLRLTCVASGLSLTSDSMSWVRQAPGKGLQWVSTLWSNRGTYYTDSVKGRFTISKDNAENTLYLQMNNLKTEDTATYYCASIYYYEADYLHWYFDFWGQGALVTVSSASTTAPSVFPLAPSCGTTSGATVALACLVLGYFPEPVTVSWNSGALTSGVHTFPAVLQASGLYSLSSMVTVPSSRWLSDTFTCNVAHPPSNTKVDKTVRKTDHPPGPKPCDCPKCPPPEAAGGPSIFIFPPKPKDTLMISRTPEVTCLVVDLGPDDSDVQITWFVDNTQVYTAKTSPREEQFNSTYRVVSVLPILHQDWLKGKEFKCKVNSKSLPSPIERTISKAKGQPHEPQVYVLPPAQEELSRNKVSVTCLIKSFHPPDLAVEWEITGQPEPENNYRTTPPQLDSDGTYFVYSKLSVDRSHWQRGNTYTCSVSHEALHSHHTQKSLTQSPG light: EIQMTQSPTSLSASVGDRVTITCRASEGIANNLSWYQQTPGKAPKLLIYATSNLHSGVPSRFSGSGSGTDFTLTISSLQPEDFATYYCQQGFKWPLTFGGGTKLEITRSDAQPSVFLFQPSLDELHTGSASIVCILNDFYPKEVNVKWKVDGVVQNKGIQESTTEQNSKDSTYSLSSTLTMSSTEYQSHEKFSCEVTHKSLASTLVKSFNRSECQRE",216 nM,0.187 s⁻¹,869000 M⁻¹ s⁻¹
"IgG with feline IgG1a Fc variant S252M (antibody, IgG1a constant domain with MALA mutations (M234A, L244A as printed); variable domains from WO 2023/97275) heavy: DVQLVESGGDLVKPGGSLRLTCVASGLSLTSDSMSWVRQAPGKGLQWVSTLWSNRGTYYTDSVKGRFTISKDNAENTLYLQMNNLKTEDTATYYCASIYYYEADYLHWYFDFWGQGALVTVSSASTTAPSVFPLAPSCGTTSGATVALACLVLGYFPEPVTVSWNSGALTSGVHTFPAVLQASGLYSLSSMVTVPSSRWLSDTFTCNVAHPPSNTKVDKTVRKTDHPPGPKPCDCPKCPPPEAAGGPSIFIFPPKPKDTLMISRTPEVTCLVVDLGPDDSDVQITWFVDNTQVYTAKTSPREEQFNSTYRVVSVLPILHQDWLKGKEFKCKVNSKSLPSPIERTISKAKGQPHEPQVYVLPPAQEELSRNKVSVTCLIKSFHPPDIAVEWEITGQPEPENNYRTTPPQLDSDGTYFVYSKLSVDRSHWQRGNTYTCSVSHEALHSHHTQKSLTQSPG light: EIQMTQSPTSLSASVGDRVTITCRASEGIANNLSWYQQTPGKAPKLLIYATSNLHSGVPSRFSGSGSGTDFTLTISSLQPEDFATYYCQQGFKWPLTFGGGTKLEITRSDAQPSVFLFQPSLDELHTGSASIVCILNDFYPKEVNVKWKVDGVVQNKGIQESTTEQNSKDSTYSLSSTLTMSSTEYQSHEKFSCEVTHKSLASTLVKSFNRSECQRE",279 nM,0.192 s⁻¹,690000 M⁻¹ s⁻¹
"IgG with feline IgG1a Fc variant S252M, R301L (antibody, IgG1a constant domain with MALA mutations (M234A, L244A as printed); variable domains from WO 2023/97275) heavy: DVQLVESGGDLVKPGGSLRLTCVASGLSLTSDSMSWVRQAPGKGLQWVSTLWSNRGTYYTDSVKGRFTISKDNAENTLYLQMNNLKTEDTATYYCASIYYYEADYLHWYFDFWGQGALVTVSSASTTAPSVFPLAPSCGTTSGATVALACLVLGYFPEPVTVSWNSGALTSGVHTFPAVLQASGLYSLSSMVTVPSSRWLSDTFTCNVAHPPSNTKVDKTVRKTDHPPGPKPCDCPKCPPPEAAGGPSIFIFPPKPKDTLMISRTPEVTCLVVDLGPDDSDVQITWFVDNTQVYTAKTSPREEQFNSTYLVVSVLPILHQDWLKGKEFKCKVNSKSLPSPIERTISKAKGQPHEPQVYVLPPAQEELSRNKVSVTCLIKSFHPPDIAVEWEITGQPEPENNYRTTPPQLDSDGTYFVYSKLSVDRSHWQRGNTYTCSVSHEALHSHHTQKSLTQSPG light: EIQMTQSPTSLSASVGDRVTITCRASEGIANNLSWYQQTPGKAPKLLIYATSNLHSGVPSRFSGSGSGTDFTLTISSLQPEDFATYYCQQGFKWPLTFGGGTKLEITRSDAQPSVFLFQPSLDELHTGSASIVCILNDFYPKEVNVKWKVDGVVQNKGIQESTTEQNSKDSTYSLSSTLTMSSTEYQSHEKFSCEVTHKSLASTLVKSFNRSECQRE",280 nM,0.332 s⁻¹,1.2e+06 M⁻¹ s⁻¹

# Now those with a lower Kd, led by results:
Kd,koff,kon,Binder
129 nM,0.124 s⁻¹,958000 M⁻¹ s⁻¹,"IgG with feline IgG1a Fc variant S252M, L309V (antibody, IgG1a constant domain with MALA mutations (M234A, L244A as printed); variable domains from WO 2023/97275) heavy: DVQLVESGGDLVKPGGSLRLTCVASGLSLTSDSMSWVRQAPGKGLQWVSTLWSNRGTYYTDSVKGRFTISKDNAENTLYLQMNNLKTEDTATYYCASIYYYEADYLHWYFDFWGQGALVTVSSASTTAPSVFPLAPSCGTTSGATVALACLVLGYFPEPVTVSWNSGALTSGVHTFPAVLQASGLYSLSSMVTVPSSRWLSDTFTCNVAHPPSNTKVDKTVRKTDHPPGPKPCDCPKCPPPEAAGGPSIFIFPPKPKDTLMISRTPEVTCLVVDLGPDDSDVQITWFVDNTQVYTAKTSPREEQFNSTYRVVSVLPIVHQDWLKGKEFKCKVNSKSLPSPIERTISKAKGQPHEPQVYVLPPAQEELSRNKVSVTCLIKSFHPPDIAVEWEITGQPEPENNYRTTPPQLDSDGTYFVYSKLSVDRSHWQRGNTYTCSVSHEALHSHHTQKSLTQSPG light: EIQMTQSPTSLSASVGDRVTITCRASEGIANNLSWYQQTPGKAPKLLIYATSNLHSGVPSRFSGSGSGTDFTLTISSLQPEDFATYYCQQGFKWPLTFGGGTKLEITRSDAQPSVFLFQPSLDELHTGSASIVCILNDFYPKEVNVKWKVDGVVQNKGIQESTTEQNSKDSTYSLSSTLTMSSTEYQSHEKFSCEVTHKSLASTLVKSFNRSECQRE"
152 nM,0.121 s⁻¹,865000 M⁻¹ s⁻¹,"IgG with feline IgG1a Fc variant S252M, Q311V (antibody, IgG1a constant domain with MALA mutations (M234A, L244A as printed); variable domains from WO 2023/97275) heavy: DVQLVESGGDLVKPGGSLRLTCVASGLSLTSDSMSWVRQAPGKGLQWVSTLWSNRGTYYTDSVKGRFTISKDNAENTLYLQMNNLKTEDTATYYCASIYYYEADYLHWYFDFWGQGALVTVSSASTTAPSVFPLAPSCGTTSGATVALACLVLGYFPEPVTVSWNSGALTSGVHTFPAVLQASGLYSLSSMVTVPSSRWLSDTFTCNVAHPPSNTKVDKTVRKTDHPPGPKPCDCPKCPPPEAAGGPSIFIFPPKPKDTLMISRTPEVTCLVVDLGPDDSDVQITWFVDNTQVYTAKTSPREEQFNSTYRVVSVLPILHVDWLKGKEFKCKVNSKSLPSPIERTISKAKGQPHEPQVYVLPPAQEELSRNKVSVTCLIKSFHPPDIAVEWEITGQPEPENNYRTTPPQLDSDGTYFVYSKLSVDRSHWQRGNTYTCSVSHEALHSHHTQKSLTQSPG light: EIQMTQSPTSLSASVGDRVTITCRASEGIANNLSWYQQTPGKAPKLLIYATSNLHSGVPSRFSGSGSGTDFTLTISSLQPEDFATYYCQQGFKWPLTFGGGTKLEITRSDAQPSVFLFQPSLDELHTGSASIVCILNDFYPKEVNVKWKVDGVVQNKGIQESTTEQNSKDSTYSLSSTLTMSSTEYQSHEKFSCEVTHKSLASTLVKSFNRSECQRE"
202 nM,0.175 s⁻¹,862000 M⁻¹ s⁻¹,"IgG with feline IgG1a Fc variant S252M, I377Y (antibody, Printed '1377Y' read as I377Y; IgG1a constant domain with MALA mutations (M234A, L244A as printed); variable domains from WO 2023/97275; also called S252M, 1377Y) heavy: DVQLVESGGDLVKPGGSLRLTCVASGLSLTSDSMSWVRQAPGKGLQWVSTLWSNRGTYYTDSVKGRFTISKDNAENTLYLQMNNLKTEDTATYYCASIYYYEADYLHWYFDFWGQGALVTVSSASTTAPSVFPLAPSCGTTSGATVALACLVLGYFPEPVTVSWNSGALTSGVHTFPAVLQASGLYSLSSMVTVPSSRWLSDTFTCNVAHPPSNTKVDKTVRKTDHPPGPKPCDCPKCPPPEAAGGPSIFIFPPKPKDTLMISRTPEVTCLVVDLGPDDSDVQITWFVDNTQVYTAKTSPREEQFNSTYRVVSVLPILHQDWLKGKEFKCKVNSKSLPSPIERTISKAKGQPHEPQVYVLPPAQEELSRNKVSVTCLIKSFHPPDYAVEWEITGQPEPENNYRTTPPQLDSDGTYFVYSKLSVDRSHWQRGNTYTCSVSHEALHSHHTQKSLTQSPG light: EIQMTQSPTSLSASVGDRVTITCRASEGIANNLSWYQQTPGKAPKLLIYATSNLHSGVPSRFSGSGSGTDFTLTISSLQPEDFATYYCQQGFKWPLTFGGGTKLEITRSDAQPSVFLFQPSLDELHTGSASIVCILNDFYPKEVNVKWKVDGVVQNKGIQESTTEQNSKDSTYSLSSTLTMSSTEYQSHEKFSCEVTHKSLASTLVKSFNRSECQRE"
